In PMC4663108 (Journal of molecular biology, 2015):

Biological target: DnaK D45C-biotin (E. coli, UniProt P0A6Y8 1-638, D45C, biotin (labeled with a 20-fold excess of Maleimide-PEG11-Biotin))
Assay: pull-down

binding result: binds
B1: CbpA (natural protein, E. coli, UniProt P36659 1-306, looked up)
chain: MELKDYYAIMGVKPTDDLKTIKTAYRRLARKYHPDVSKEPDAEARFKEVAEAWEVLSDEQRRAEYDQMWQHRNDPQFNRQFHHGDGQSFNAEDFDDIFSSIFGQHARQSRQRPATRGHDIEIEVAVFLEETLTEHKRTISYNLPVYNAFGMIEQEIPKTLNVKIPAGVGNGQRIRLKGQGTPGENGGPNGDLWLVIHIAPHPLFDIVGQDLEIVVPVSPWEAALGAKVTVPTLKESILLTIPPGSQAGQRLRVKGKGLVSKKQTGDLYAVLKIVMPPKPDENTAALWQQLADAQSSFDPRKDWGKA
